Results published in publication PMC9651861 (Science Advances, 2022).

B1: DesAb-RBD-C2 (VHH)
VHH: EVQLEESGGGLVQPGGSLRLSCAASGFNIKDTYIGWVRQAPGKGEEWVASIYPTSGYTRYADSVKGRFTISADTSKNTAYLQMNSLRAEDTAVYYCAAGSVVADLSVEEFDYWGQGTLVTVSS
B2: DesAb-RBD-C1 (VHH)
VHH: EVQLEESGGGLVQPGGSLRLSCAASGFNIKDTYIGWVRQAPGKGEEWVASIYPTSGYTRYADSVKGRFTISADTSKNTAYLQMNSLRAEDTAVYYCAAGSGSSATEVYEEFDYWGQGTLVTVSS

Molecular target: T1, human serum albumin (Homo sapiens, UniProt P02768)
T1 construct: also called HSA
Test: BLI
Conditions: both partners purified

| Binder | binding result |
| --- | --- |
| B1 | no binding |
| B2 | no binding |
